Source: the DeepSol protein solubility set

assay: soluble on expression in E. coli; label from the status in PepcDB or PDB records

Sequence | soluble on expression in E. coli
MAHHHHHHMGQGFSRAQMEEYKELVKDRFSEEAIEFLFMKFHKAAPEGVMTPVEFKRYIDSTGVYKNYRRTHLASWFPSYAKYTHSKGGNRAVRKTSAQILDREMYLHLFRAYDRDCDGVISFREFLLYHLAVMYSTEELFVVVFNAYDDDQDGYLSLDDIRNTITAATRYVGDCDVEDQEVQRVIDEEAQRLMFFLDVRKDGRIRRDDMRLITQKHPEVLEKMKNLM | soluble
MGSSHHHHHHGGTGENLYFQGGSGAKKHLKRLYAPKDWMLSKLTGVFAPRPRPGPHKLRECLPLLVIIRNRLKYALNAREGEMILRQGLVHVDNHPRRDGKYPAGFMDVVEIPKTGDRFRLMYDVKGRFALVNLSEAEAQIKLMKVVNLYTATGRVPVAVTHDGHRIRYPDPHTSIGDTIVYNVKEKKCVDLIKNRQGKAVIVTGGANRGRIGEIVKVECHPGAFNIAHLKDASGAEFATRAANIFVIGKDLNNLQVTVPKQQGLRMNVIQEREERLIAAEARKNAPARGARRARK | soluble
MSSFSESALEKKLSELSNSQHSVQTLSLWLIHHRKHAGPIVSVWHRELRKAKSNRKLTFLYLANDVIQNSKRKGPEFTREFESVLVDAFSHVAREADEGCKKPLERLLNIWQERSVYGGEFIQQLKLSMEDSKSPPPKATEEKKSLKRTFQQIQEEEDDDYPGSYSPQDPSAGPLLTEELIKALQDLENAASGDATVRQKIASLPQEVQDVSLLEKITDKEAAERLSKTVDEACLLLAEYNGRLAAELEDRRQLARMLVEYTQNQKDVLSEKEKKLEEYKQKLARVTQVRKELKSHIQSLPDLSLLPNVTGGLAPLPSAGDLFSTD | soluble
MTPDPLYMRRAIELAQNAEGFTSPNPLVGAVLVAHGRIIGEGYHHCAGMPHAEVIAINSVRDRALLRESTLYVSLEPCSHYGKTPPCAELILREGIPHVVVAMLDPFPSVSGRGIKMLRDAGVSVQVGLLAEEAEELNRHFLTAQRQHRPYVTLKWAESSDGFIDALRDDASTPPVRLSTPLTTRFVHHRRMIHDAILVGFRTALLDNPSLTVRHWYGRNPLRVVTDRHLALPRHLTLFDGSVPTLVFTEKEQPSGYPSAVSFVRIDPSRPPVEQMLAELHARGIQSLLVEGGACILRSFIDSGLYDDVRIEHSTIILNEGVRAPHLPSY | not soluble
GAEPKGLLRVDLPVSLGRMVVIPALPEFTRRYPQVRLEIGMSDRPVDLIREGVDCVLRAGAALDEALVARPLGSLTQITCASREYLQQHGTPLQLEDLAHHQVIEYFSASTSKRYGLEFVGEGGAPDHGLACSISVNSADGY | not soluble
MGQCLGTLCTVDSATDNISSVYQLAGPVAVKESPRIAERDPKVKISVNPEEENVERPCVLYSKSNEIIKKPDIFEEIYKRTPITLSNNGRIDVAELPAGQRVIEVENNEVRDKYKKTLYEIRRKCRELQNLGAEDEETGEIIDTLLILYKDFFLLTTWKIDKYAQLRKNAAVQAYNSLPKLRADPAEFRCHVEFQYRVANELWEHFKETYIHKYEACNWAERAKVKEWDLLDSQVQTPNVEWDYLGAHGYI | not soluble
TQQPIVTGTSVISMKYDNGVIIAADNLGSYGSLLRFNGVERLIPVGDNTVVGISGDISDMQHIERLLKDLVTENAYDNPLADAEEALEPSYIFEYLATVMYQRRSKMNPLWNAIIVAGVQSNGDQFLRYVNLLGVTYSSPTLATGFGAHMANPLLRKVVDRESDIPKTTVQVAEEAIVNAMRVLYYRDARSSRNFSLAIIDKNTGLTFKKNLQVENMKWDFAKDIKGYGTQKI | soluble
SDRSAEFRKWKAQCLSKADLSRKGSVDEDVVELVQFLNMRDQFFTTSSCAGRILLLDRGINGFEVQKQNCCWLLVTHKLCVKDDVIVALKKANGDATLKFEPFVLHVQCRQLQDAQILHSMAIDSGFRNSGITVGKRGKTMLVVRSTHGLEVPLSHKGKLMVTEEYIDFLLNVANQKMEENKKRIERFYNCLQHALERETMTNLHPKIKEKNNSSYIHKKKRNPEKTRAQCITKESDEELENDDDDDLGINVTIFPEDY | soluble
MKLCFNEATTLENSNLKLDLELCEKHGYDYIEIRTMDKLPEYLKDHSLDDLAEYFQTHHIKPLALNALVFFNNRDEKGHNEIITEFKGMMETCKTLGVKYVVAVPLVTEQKIVKEEIKKSSVDVLTELSDIAEPYGVKIALEFVGHPQCTVNTFEQAYEIVNTVNRDNVGLVLDSFHFHAMGSNIESLKQADGKKIFIYHIDDTEDFPIGFLTDEDRVWPGQGAIDLDAHLSALKEIGFSDVVSVELFRPEYYKLTAEEAIQTAKKTTVDVVSKYFSMLEHHHHHH | soluble
